In patent publication US9365599B2, “N3S1 chelator-folate derivatives, preparation method thereof and composition for diagnosis or treatment of cancer containing the same as an active ingredient” (KOREA ATOMIC ENERGY RESEARCH INSTITUTE, priority 2012, dated 2016):

Legend:
[1] = tested on: FR-positive KB tumor cells; test: Time-dependent cell uptake (membrane bound and internalized fraction) in FR-positive KB cells; format: cell-based, human; details: 37° C., 10-180 min
Description: FR-positive KB tumor cells (human oral epidermoid carcinoma) which overexpress FR were grown in T-flask until 80%-90% confluence at 37° C. and 5% CO2 with folid-acid free (deficient) RPMI 1640 medium (FFRPMI) containing 10% heat-inactivated fetal bovine serum (FBS). […] Cells were rinsed twice with ice-cold PBS and pre-incubated with 850 μl of fresh FFRPMI without FBS at 37° C. for 30 min. […] After incubation, the well plates were washed twice with ice-cold PBS.
After that, the cells were washed with an acid wash buffer (50 mM glysine-HCL buffer, pH 2.4), to remove membrane bound radioligand, and the supernatant was collected to measure the membrane bound fraction of radioactivity. Cells were lysed with 1N NaOH, transferred and measured the internalised fraction of radioactivity with γ-counter. Counted radioactivity in membrane bound fraction and internalized fraction could be ascribed to the sum of cell uptake. The cell uptake data was expressed as % cell uptake (cell uptake/total added activity). Each data represents a result of the […] of triplicate wells. The affinity of PKCK-fol was determined using competitive binding assay. ^99mTc-PKC-fol was used as radioligand in this assay. Cells were harvested with typsin and washed with PBS buffer, and 8×10^5 cells were seeded in 12-well plates. […] After that, the cells were collected to measure the radioactivity with γ-counter. […]

[2] = in vivo; design: species or system mice; details: female, nude, mouse, iv, 370 kBq, total radioactivity
Description: (§1) The stock solution of the ^99mTc-labeled PKCK-fol-OH used in the animal studies was prepared for 10^−8 mol/ml with an activity of 370 MBq. Solutions for injection were prepared by the dilution of the stock solution to obtain a desired volumetric activity of 3.7 MBq/ml. The biodistribution experiments for the ^99mTc-labeled PKCK-fol-OH were performed with KB-bearing female nude mice (provided by OrientBio, Republic of Korea). […] After tumor was allowed to grow for 2-3 weeks, the mice were administered 370 kBq (10 uCi)/100 μl intravenously. At 30 min, 1 hr, 3 hr and 24 hr, the animals were sacrificed.
(§2) Table 1 below lists biodistribution results measured at 30 min, 1 hr, 3 hr and 24 hr after injection.

[3] = tested on: KB tumor xenograft; test: in vivo; design: species or system mice; details: mouse, iv
Description: as §1, §2

[4] = target: T1, folate-receptor (FR) (Homo sapiens, UniProt P15328); test: Competitive binding assay on FR-positive KB cells with 99mTc-labeled folate radioligand
T1 construct: FR-positive KB tumor cells (human oral epidermoid carcinoma) which overexpress FR; endogenous in cells; host or cells: KB cells (human oral epidermoid carcinoma)
T1 sequence (P15328 25-234): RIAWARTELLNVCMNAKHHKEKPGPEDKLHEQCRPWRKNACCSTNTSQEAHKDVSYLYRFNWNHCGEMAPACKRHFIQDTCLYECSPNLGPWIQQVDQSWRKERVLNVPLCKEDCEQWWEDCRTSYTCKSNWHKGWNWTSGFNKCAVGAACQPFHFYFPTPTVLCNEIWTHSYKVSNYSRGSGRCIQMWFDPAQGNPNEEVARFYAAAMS
Description: After that, the cells were washed with an acid wash buffer (50 mM glysine-HCL buffer, pH 2.4), to remove membrane bound radioligand, and the supernatant was collected to measure the membrane bound fraction of radioactivity. Cells were lysed with 1N NaOH, transferred and measured the internalised fraction of radioactivity with γ-counter. Counted radioactivity in membrane bound fraction and internalized fraction could be ascribed to the sum of cell uptake. The cell uptake data was expressed as % cell uptake (cell uptake/total added activity). […] Cells were harvested with typsin and washed with PBS buffer, and 8×10^5 cells were seeded in 12-well plates. […] After that, the cells were collected to measure the radioactivity with γ-counter.

## NCCCC[C@H](NC(=O)[C@@H]1CCCN1)C(=O)N[C@@H](CS)C(=O)NCCCC[C@H](NC(=O)CC[C@H](NC(=O)c1ccc(NCc2cnc3nc(N)[nH]c(=O)c3n2)cc1)C(=O)O)C(=O)O (99mTc complex, metal not drawn) [Example 10]
[1]
  cell affinity and internalization rate: increased time dependently
[2]; Blood uptake
  tissue uptake at 0.5 h: 0.64 ± 0.26 %ID/g
  tissue uptake at 1 h: 0.36 ± 0.06 %ID/g
  tissue uptake at 3 h: 0.18 ± 0.05 %ID/g
  tissue uptake at 24 h: 0.06 ± 0.02 %ID/g
[2]; Heart uptake
  tissue uptake at 0.5 h: 2.25 ± 0.47 %ID/g
  tissue uptake at 1 h: 1.73 ± 0.27 %ID/g
  tissue uptake at 3 h: 1.03 ± 0.32 %ID/g
  tissue uptake at 24 h: 0.1 ± 0.06 %ID/g
[2]; Kidney uptake
  tissue uptake at 0.5 h: 76.5 ± 5.04 %ID/g
  tissue uptake at 1 h: 77.2 ± 5.43 %ID/g
  tissue uptake at 3 h: 41.5 ± 12.1 %ID/g
  tissue uptake at 24 h: 7.49 ± 1.9 %ID/g
[2]; Lg Int uptake
  tissue uptake at 0.5 h: 2.43 ± 1.38 %ID/g
  tissue uptake at 1 h: 3.43 ± 0.73 %ID/g
  tissue uptake at 3 h: 1.48 ± 0.64 %ID/g
  tissue uptake at 24 h: 1.38 ± 0.86 %ID/g
[2]; Liver uptake
  tissue uptake at 0.5 h: 7.21 ± 1.58 %ID/g
  tissue uptake at 1 h: 5.42 ± 1.85 %ID/g
  tissue uptake at 3 h: 2.83 ± 0.6 %ID/g
  tissue uptake at 24 h: 1.09 ± 0.07 %ID/g
[2]; Lung uptake
  tissue uptake at 0.5 h: 1.7 ± 0.35 %ID/g
  tissue uptake at 1 h: 1.45 ± 0.33 %ID/g
  tissue uptake at 3 h: 0.63 ± 0.26 %ID/g
  tissue uptake at 24 h: 0.12 ± 0.06 %ID/g
[2]; Sm Int uptake
  tissue uptake at 0.5 h: 0.93 ± 0.54 %ID/g
  tissue uptake at 1 h: 0.43 ± 0.05 %ID/g
  tissue uptake at 3 h: 0.27 ± 0.12 %ID/g
  tissue uptake at 24 h: 0.1 ± 0.05 %ID/g
[2]; Spleen uptake
  tissue uptake at 0.5 h: 0.47 ± 0.13 %ID/g
  tissue uptake at 1 h: 0.36 ± 0.03 %ID/g
  tissue uptake at 3 h: 0.3 ± 0.07 %ID/g
  tissue uptake at 24 h: 0.1 ± 0.03 %ID/g
[2]; Stomach uptake
  tissue uptake at 0.5 h: 1.92 ± 0.26 %ID/g
  tissue uptake at 1 h: 1.2 ± 0.05 %ID/g
  tissue uptake at 3 h: 0.55 ± 0.16 %ID/g
  tissue uptake at 24 h: 0.13 ± 0.04 %ID/g
[2]; Tumor uptake
  tissue uptake at 0.5 h: 2.6 ± 0.53 %ID/g
  tissue uptake at 1 h: 2.96 ± 0.51 %ID/g
  tissue uptake at 3 h: 2.24 ± 0.27 %ID/g
  tissue uptake at 24 h: 0.91 ± 0.28 %ID/g
[2]; Tumor/blood ratio
  tissue to tissue ratio at 0.5 h: 4.38 ± 0.92
  tissue to tissue ratio at 1 h: 8.35 ± 1.12
  tissue to tissue ratio at 3 h: 13.2 ± 2.78
  tissue to tissue ratio at 24 h: 15.2 ± 4.36
[2]; Tumor/kidney ratio
  tissue to tissue ratio at 0.5 h: 0.03 ± 0.01
  tissue to tissue ratio at 1 h: 0.04 ± 0.01
  tissue to tissue ratio at 3 h: 0.06 ± 0.01
  tissue to tissue ratio at 24 h: 0.12 ± 0.02
[2]; Tumor/liver ratio
  tissue to tissue ratio at 0.5 h: 0.38 ± 0.14
  tissue to tissue ratio at 1 h: 0.58 ± 0.17
  tissue to tissue ratio at 3 h: 0.82 ± 0.2
  tissue to tissue ratio at 24 h: 0.83 ± 0.24
[3]
  uptake in other organs (lung, heart, stomach and intestines): kept at a low level

## NCCCCC(NC(=O)C1CCCN1)C(=O)NC(CS)C(=O)NCCCCC(NC(=O)CCC(NC(=O)c1ccc(NCC2=NC3C(=O)NC(N)=NC3N=C2)cc1)C(=O)O)C(=O)O (stereo not shown) [Example 1, PKCK-Fol-OH]
[4]
  IC50: 160 nM
